Measured values as given in publication PMC11586170, “Amino-functionalized vertically ordered mesoporous silica film on electrochemically polarized screen-printed carbon electrodes for the construction of gated electrochemical aptasensors and sensitive d”.

Target: carcinoembryonic antigen (CEA) (UniProt P06731 35-685)
Test: electrochemical aptasensor (DPV, Fe(CN)6 3-/4- probe); aptamer immobilized on BSA-blocked NH2-VMSF/p-SPCE; linear range 100 fg/mL-100 ng/mL, LOD 24 fg/mL (not an affinity); aptamer immobilized in 0.01 M PBS pH 7.4 (4 C, 90 min), BSA block 0.1 wt%; CEA incubation 60 min; CEA binding buffer and temperature not in the material
Details: protein: commercial

carcinoembryonic antigen (CEA), sequence (P06731 35-685): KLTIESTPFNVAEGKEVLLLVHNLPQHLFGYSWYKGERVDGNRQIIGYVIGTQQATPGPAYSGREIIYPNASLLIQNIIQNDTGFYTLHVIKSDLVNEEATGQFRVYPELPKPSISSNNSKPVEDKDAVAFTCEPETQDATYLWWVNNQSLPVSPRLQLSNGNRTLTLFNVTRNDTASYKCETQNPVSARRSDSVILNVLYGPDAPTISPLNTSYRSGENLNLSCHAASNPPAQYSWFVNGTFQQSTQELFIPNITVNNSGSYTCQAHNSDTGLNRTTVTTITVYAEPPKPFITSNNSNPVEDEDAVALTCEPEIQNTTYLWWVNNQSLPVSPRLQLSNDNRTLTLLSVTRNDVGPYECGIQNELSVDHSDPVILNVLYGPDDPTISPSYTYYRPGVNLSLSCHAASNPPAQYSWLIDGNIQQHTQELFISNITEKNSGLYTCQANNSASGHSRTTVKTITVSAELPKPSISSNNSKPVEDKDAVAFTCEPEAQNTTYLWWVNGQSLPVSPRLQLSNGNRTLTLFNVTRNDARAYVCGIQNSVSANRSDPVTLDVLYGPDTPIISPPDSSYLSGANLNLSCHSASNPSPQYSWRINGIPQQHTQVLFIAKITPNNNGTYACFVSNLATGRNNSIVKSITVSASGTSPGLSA

**Q.** Does ATACAGCTTCAATT (ssDNA, 3'-NH2) [amino-modified CEA aptamer (Apt)] bind?
**A.** Result: binds
